Assay [1] deals with T1, human transferrin receptor (hTfR) (human, UniProt P02786 89-760).
T1 construct: also called human TfR; TfR1
Description: SPR, Biacore T200, hTfR captured by anti-His antibody on CM3 chip, pH 7.4. For orientation: In SPR one partner is held on a chip, and binding of the other changes the refractive index at the surface.
T1 sequence (P02786 89-760 limits assumed): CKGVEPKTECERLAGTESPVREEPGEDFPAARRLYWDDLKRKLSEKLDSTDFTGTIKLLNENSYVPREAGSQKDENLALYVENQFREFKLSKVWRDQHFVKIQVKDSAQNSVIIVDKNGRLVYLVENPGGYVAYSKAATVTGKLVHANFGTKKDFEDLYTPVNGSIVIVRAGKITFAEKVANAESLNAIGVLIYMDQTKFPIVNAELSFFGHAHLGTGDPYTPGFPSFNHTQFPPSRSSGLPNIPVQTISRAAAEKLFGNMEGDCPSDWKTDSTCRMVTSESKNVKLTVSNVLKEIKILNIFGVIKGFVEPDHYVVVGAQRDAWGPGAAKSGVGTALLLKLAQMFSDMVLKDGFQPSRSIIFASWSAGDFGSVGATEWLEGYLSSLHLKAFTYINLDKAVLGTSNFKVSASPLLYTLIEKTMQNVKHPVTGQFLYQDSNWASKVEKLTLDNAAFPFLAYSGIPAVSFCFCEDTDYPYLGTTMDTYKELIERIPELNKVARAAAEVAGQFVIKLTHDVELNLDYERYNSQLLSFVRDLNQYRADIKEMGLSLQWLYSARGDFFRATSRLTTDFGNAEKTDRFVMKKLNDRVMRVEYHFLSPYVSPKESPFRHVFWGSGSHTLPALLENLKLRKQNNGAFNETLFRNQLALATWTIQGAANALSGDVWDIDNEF

Assay [2] deals with T1, human transferrin receptor (hTfR). Description: SPR; ratio of koff at pH 6.0 to koff at pH 7.4.
The target is the same in assay [3]. The assay is described as follows: SPR, Biacore T200, hTfR immobilised on NTA chip, pH 6.0.
Target sequence in this assay (P02786 89-760 limits assumed): as above
The target is the same in assay [4]. Description: SPR; ratio of KD at pH 6.0 to KD at pH 7.4.
Target sequence in this assay (P02786 89-760 limits assumed): as above
The target in assay [5] is T2, human transferrin receptor (hTfR) (human, UniProt P02786 89-760).
T2 construct: also called human TfR; TfR1
The assay is described as follows: SPR, Biacore T200, pH 7.4, hTfR captured by anti-His antibody on CM3 chip, single-cycle kinetics.
T2 sequence (P02786 89-760 limits assumed): as above

In assay [6] the target is T3, human transferrin receptor (hTfR) (human, UniProt P02786 89-760).
T3 construct: a His tag is implied by the NTA chip and the anti-His capture; also called human TfR; TfR1
Description: SPR, pH 7.4.
T3 sequence (P02786 89-760 limits assumed): as above

In assay [7] the target is T3, human transferrin receptor (hTfR). The assay is described as follows: SPR, pH 6.0.

Experimental findings from patent publication EP4667483A1 (JCR Pharmaceuticals Co., Ltd., dated 2024) are described below.

B1: 894_0592 (SEQ ID No. 118) (peptide)
peptide: AVXVXNYYIIKRYXC
modifications: not fully specified; MeF at 3; MeW at 5; MeF4COO at 14; cyclic: chloroacetylated N-terminal Ala 1 joined to Cys 15; linker PEG4c on C-terminus
notes: As printed: A-V-MeF-V-MeW-N-Y-Y-I-I-K-R-Y-MeF4COO-C, linker PEG4c
A word on the Kd: it is the constant that tells how readily two partners part at equilibrium. The low end stands for tighter binding, the high end for weaker binding. Regarding B1, the Kd in assay [1] was determined as 1.11 nM; in assay [3], 4.31 nM. In addition, in assay [2], the “dependency koff pH6.0/7.4” value stood at 4.21. Further, the “dependency KD pH6.0/7.4” value in assay [4] amounted to 3.88.

B2: 894_0591 (SEQ ID No. 117) (peptide)
peptide: AVXVXNYYXIKRYXC
modifications: not fully specified; MeF at 3; MeW at 5; Eva at 9; MeY at 14; cyclic: chloroacetylated N-terminal Ala 1 joined to Cys 15; linker PEG4c on C-terminus
notes: As printed: A-V-MeF-V-MeW-N-Y-Y-Eva-I-K-R-Y-MeY-C, linker PEG4c
Regarding B2, the Kd is 7.64 nM in assay [1] and 13.8 nM in assay [3]. For the same molecule, the “dependency koff pH6.0/7.4” value in assay [2] stood at 3.29. Besides, the “dependency KD pH6.0/7.4” value in assay [4] turned out to be 1.81.

B3: 894_3493 (SEQ ID NO: 198) (peptide)
peptide: AVXVWNRYIIRRYXC
modifications: MeF at 3; MeF4COO at 14; N-terminal Ala chloroacetylated and cyclised by thioether to Cys 15; linker G-de-de-de-ds-ds-KN3-NH2 on Cys 15 (de = D-Glu, ds = D-Ser, KN3 = azido-lysine, C-terminal amide)
notes: Cyclic peptide with linker
On to B3, for which binding in assay [5] was characterised by a dissociation constant (Kd) of 1040 nM. In other words, the single-digit micromolar range.

B4: 894_3434 (SEQ ID NO: 64) (peptide)
peptide: AVXVWNYXIIRRYXC
modifications: 3 MeF; 8 F4aao(PEG8Me); 14 MeY; chloroacetyl-Ala1 cyclised to Cys15; linker G-KN3 after Cys15; terminus -NH2
notes: The linker G-KN3 (Gly, N6-diazo-L-lysine) follows Cys15; whether the listing entry holds these two residues cannot be seen here
Regarding B4, the figures for the Kd in assay [6] and in assay [7] were 8.74 nM and 32.3 nM, respectively.

B5: 894_0610 (SEQ ID NO: 61) (peptide)
peptide: AVXVXNYYIIKRYXC
modifications: 3 MeF3C; 5 3Imp; 14 MeY; chloroacetyl-Ala1 cyclised to Cys15; linker PEG4c after Cys15; terminus -NH2
B5: the Kd came out at 0.861 nM in assay [6] and 7.47 nM in assay [7].

B6: 894_3495 (SEQ ID NO: 199) (peptide)
peptide: AVXVWNRYIIRRYXC
modifications: MeF at 3; MeY at 14; N-terminal Ala chloroacetylated and cyclised by thioether to Cys 15; linker G-de-de-de-ds-ds-KN3-NH2 on Cys 15 (de = D-Glu, ds = D-Ser, KN3 = azido-lysine, C-terminal amide)
notes: Cyclic peptide with linker
In assay [5], B6 displayed a Kd of 531 nM. That is a sub-micromolar value.
